Several values for one entry are separate records, joined by “and”; a condition that tells them apart may be missing. Equal entries are not always repeated. Where two headings read alike, the source gives them in different places.

For three substances, Kd and koff results are on record in PMC7801515.

Assay in all cases: SPR
Background: SPR reads the build-up and loss of mass on a sensor chip optically.

Test [1] concerns the target SARS-CoV-2 receptor-binding domain (RBD), residues Arg319 to Lys529 (SARS-CoV-2) (UniProt P0DTC2).
The target in test [2] is P2B-2F6 monoclonal antibody (human).
The target in test [3] is SARS-CoV-2 receptor-binding domain (RBD), residues Arg319 to Lys529 (SARS-CoV-2) (UniProt P0DTC2). The source holds these as a separate data set.

With P2B-2F6 monoclonal antibody, in test [1], the Kd (commonly the concentration at which binding is half-saturated) was 19 nM and 13.8 nM and 14.1 nM; the koff – broadly, the first-order rate constant of dissociation – was 0.102 s⁻¹ and 0.0911 s⁻¹.

As to “SARS-CoV-2 receptor-binding domain (RBD), residues Arg319 to Lys529 (from UniProt P0DTC2 319-529) (domain or fragment)”, the Kd in test [2] turned out to be 15.6 nM.

As for P2C-1F11 monoclonal antibody, in test [3], the Kd was 1.1 nM and 2.67 nM and 1.38 nM; the koff was 0.00263 s⁻¹ and 0.00303 s⁻¹ and 0.00213 s⁻¹. The same substance yielded a Kd in test [1] of 2.4 nM.
